Reference: patent US20260159596A1 (published 2026)

T1: recombinant DR3 (DR3-His tag) (human, UniProt Q93038 25-199)
T1 chain: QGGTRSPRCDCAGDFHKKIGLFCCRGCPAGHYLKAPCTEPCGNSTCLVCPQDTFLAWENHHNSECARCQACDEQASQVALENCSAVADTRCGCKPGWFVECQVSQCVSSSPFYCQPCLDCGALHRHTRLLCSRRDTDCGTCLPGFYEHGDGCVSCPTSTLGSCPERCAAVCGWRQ


Molecular target: T1, recombinant DR3 (DR3-His tag)
Assay: SPR

Binder | Kd
TL1A (tumor necrosis factor-like ligand 1A), His tag (ligand) LKGQEFAPSHQQVYAPLRADGDKPRAHLTVVRQTPTQHFKNQFPALHWEHELGLAFTKNRMNYTNKFLLIPESGDYFIYSQVTFRGMTSECSEIRQAGRPNKPDSITVVITKVTDSYPEPTQLLMGTKSVCEVGSNWFQPIYLGAMFSLQEGDKLMVNVSDISLVDYTKEDKTFFGAFLL | 426 nM
clone 4-4 IgG2 monoclonal antibody (antibody, V domains shown) VH: EVQLVESGGGLVKPGGSLRLSCAASGFTFSDYYMSWIRQAPGKGLEWVSYISSSSSYTNYADSVKGRFTISRDNAKNSLYLQMNSLRAEDTAVYYCASNVDTAMVGAFDIWGQGTLVTVS VL: DIEMTQSPSSVSASVGDTVTITCRASQHISNWLAWYQQKPGQAPKFLIYTASNLQSGVPSRFSGSGYGTDFTLTISGLQPEDFATYYCQQADSFPLTFGGGTKVDIK | 35.8 nM
clone 4-4 IgG1 monoclonal antibody (antibody, V domains shown) VH: EVQLVESGGGLVKPGGSLRLSCAASGFTFSDYYMSWIRQAPGKGLEWVSYISSSSSYTNYADSVKGRFTISRDNAKNSLYLQMNSLRAEDTAVYYCASNVDTAMVGAFDIWGQGTLVTVS VL: DIEMTQSPSSVSASVGDTVTITCRASQHISNWLAWYQQKPGQAPKFLIYTASNLQSGVPSRFSGSGYGTDFTLTISGLQPEDFATYYCQQADSFPLTFGGGTKVDIK | 1.56 nM
anti-DR3 3-18 monoclonal antibody (antibody, V domains shown) VH: QVQLQQSGPGLVKPSETLSLTCTVSGGSISSSSYYWGWIRQPPGKGLEWIGSIYYSGSTYYNPSLKSRVTISVDTSKNQFSLKLSSVTAADTAVYYCARQVSGPLDYWGQGTLVTVS VL: DIVMTQSPSSLSASVGDRVTITCRASQGIRNDLGWYQQKPGKAPKLLIYAASSLQSGVPSRFSGSGSGTDFTLTISSLQPEDFATYYCLQDYNYPRTFGQGTKVEIK | 0.0463 nM
anti-DR3 2-10 monoclonal antibody (antibody, V domains shown) VH: QVQLVQSGAEVKKPGASVKVSCKASGYTFTSYGISWVRQAPGQGLEWMGWISAYNGNTNYAQKLQGRVTMTTDTSTSTAYMELRSLRSDDTAVYYCASGPDYGMLDYWGQGTLVTVS VL: EIVMTQSPSSLPASVGDRVTITCQASQDISNYLNWYQQKPGKAPKLLIYDASNLETGVPSRFSGSGSGTDFTFTISSPQPEDIATYYCQQYDNLPLTFGGGTKVEIK | 0.693 nM
anti-DR3 6-15 monoclonal antibody (antibody, V domains shown) VH: QVQLVQSGGGLVQPGGSLRLSCAASGFTFSSYSMNWVRQAPGKGLEWVSYISSSSSTIYYADSVKGRFTISRDNAKNSLYLQMNSLRAEDTAVYYCARWDGYCSGGSCYSGMDYWGQGTLVTVS VL: DIEMTQSPSSLSASVGDKVTITCQASQDISNYLNWYQQKPGKAPKLLIYDASNLETGVPSRFSGSGSGTDSTFTISSLQPEDIATYYCQQYDNLPLTFGGGTKVEIK | 82.4 nM
anti-DR3 6-2 monoclonal antibody (antibody, V domains shown) VH: QVQLVQSGGGLVQPGGSLRLSCAASGFTFSSYSMNWVRQAPGKGLEWVSYISSSSSTIYYADSVKGRFTISRDNAKNSLYLQMNSLRAEDTAVYYCARWDGYCSGGSCYSGMDYWGQGTLVTVS VL: not shown | 3.91 nM
